Source: ChEMBL document CHEMBL2074562, “Substrate specificity of the rat liver Na(+)-bile salt cotransporter in Xenopus laevis oocytes and in CHO cells” (Am J Physiol, 1998)

Tests used:
Type in all cases: functional, cell-based
[1] = substrate: C[C@H](CCC(=O)NCC(=O)O)[C@H]1CC[C@H]2[C@@H]3[C@H](O)C[C@@H]4C[C@H](O)CC[C@]4(C)[C@H]3C[C@H](O)[C@]12C; experiment: (§1) TP_TRANSPORTER: uptake in Ntcp-expressing CHO cells
[2] = substrate: C[C@H](CCC(=O)NCCS(=O)(=O)O)[C@H]1CC[C@H]2[C@@H]3[C@H](O)C[C@@H]4C[C@H](O)CC[C@]4(C)[C@H]3CC[C@]12C; experiment: as §1
[3] = substrate: C[C@]12CC[C@@H]3c4ccc(OS(=O)(=O)O)cc4CC[C@H]3[C@@H]1CCC2=O; experiment: as §1

B1: Hepatic sodium/bile acid cotransporter (Rattus norvegicus) (protein)
chain: MEVHNVSAPFNFSLPPGFGHRATDKALSIILVLMLLLIMLSLGCTMEFSKIKAHLWKPKGVIVALVAQFGIMPLAAFLLGKIFHLSNIEALAILICGCSPGGNLSNLFTLAMKGDMNLSIVMTTCSSFSALGMMPLLLYVYSKGIYDGDLKDKVPYKGIMISLVIVLIPCTIGIVLKSKRPHYVPYILKGGMIITFLLSVAVTALSVINVGNSIMFVMTPHLLATSSLMPFSGFLMGYILSALFQLNPSCRRTISMETGFQNIQLCSTILNVTFPPEVIGPLFFFPLLYMIFQLAEGLLIIIIFRCYEKIKPPKDQTKITYKAAATEDATPAALEKGTHNGNIPPLQPGPSPNGLNSGQMAN
- Km [1]: 27 µM
- Km [2]: 5 µM
- Km [3]: 27 µM
